This data set relates to MS2 coat protein. The data set is described as follows: apparent KD of MS2 coat protein; designed switch direction (-1 OFF switch, 1 ON switch): -1; higher = weaker reporter binding. In outline:
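Designed RNA switches with common flanks were transcribed on Illumina chips by stalled E. coli RNA polymerase and titrated with SNAP-549-labelled MS2 coat protein, from 0.7 or 1.5 nM doubling to 3 µM, in Tris-HCl pH 7.5 buffer with KCl, MgCl2, BSA, DTT, tRNA and Tween-20. Steps lasted 0.8–1.5 h (lowest) to 10–20 min (highest). Titrations ran without input, with 200 uM small-molecule ligand, or with an oligonucleotide input. Normalised cluster fluorescence was curve-fitted, and apparent KD is the per-design median over clusters.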

Where [1] appears, read: input ligand: microRNA oligo, concentration not stated.
Setting [2] is: Eterna round: R95, input ligand: microRNA oligo, concentration not stated.

In the case of “GCUCCUCCUGUUAGGAUAUGCUUCGGGCUUCCGCAGCAGAAGGAACAUGAGGAUCACCCAUGUCAAAUAAAAUC [Brourd's mod of Ex.4 - Mod Inxebexe (Scored 85 R3.2)] (Eterna round: R97, puzzle: Brourd's mod of Exclusion 4)”, the “apparent KD of MS2 coat protein” value reads like this: (input ligand: FMN 200 uM) 0.223 µM; (input ligand: none) 0.0762 µM.

In the case of “GCUCGCGGGCAAGGAUAUCCUACGCUGUUCUGGCCCGUGUCUGUUACAUGAGGAUCACCCAUGUGGGAGAAGGUGCACCAGGGC [Design 46] (Eterna round: R96, puzzle: Exclusion NG 2)”, the “apparent KD of MS2 coat protein” value turned out to be 0.0197 µM (input ligand: FMN 200 uM), 0.0119 µM under setting [1] and 0.0191 µM (input ligand: none).

In the case of “GCUGCUAGAGGAUAUACAUGAGGAUCACCCAUGUGAAAUUAUAGUGAGGAAAUGAAAAGUAGAAGGCUAGUAGA [Mod of Mat 16 - Jieux - Exclusion 3] (Eterna round: R97, puzzle: Exclusion 3)”, the “apparent KD of MS2 coat protein” value runs as follows: (input ligand: FMN 200 uM) 0.381 µM; (input ligand: none) 0.0362 µM.

For “GCUGGGUCAGGAUAUACAAGAUCGAAAGAUCAAAGAUUCGUACAUGAGGAUCACCCAUGUAGAAGGGACUGGGC [ChP 11-04-2015 #8] (puzzle: Exclusion 2)”, the “apparent KD of MS2 coat protein” value under setting [2] is 0.0172 µM.

For “GCUGGGUCAGGAUAUACAAGAUCGAAAGAUCUGUGAAACGAACAUGAGGAUCACCCAUGUAGAAGGGACUGGGC [ChP 11-04-2015 #9] (puzzle: Exclusion 2)”, the “apparent KD of MS2 coat protein” value under setting [2] came to 0.0166 µM.

For “GCUGGUCAAGGAUAUACAUGAGGAUCACCCAUGUAGAUCAACCAGCGAUAGCUGGAAUGUAGAAGGUGACCAGC [E3/5-C1] (Eterna round: R97, puzzle: Exclusion 3)”, the “apparent KD of MS2 coat protein” value (input ligand: FMN 200 uM) is 0.0484 µM and the “apparent KD of MS2 coat protein” value (input ligand: none) stood at 0.0155 µM.

Consider “GCUGGUCGAGGAUAUACAUGAGGAUCACCCAUGUUGAUCAACUGCCGAUAGGCAGAAUGUAGAAGGCGACCAGC [E3/7-A1] (Eterna round: R97, puzzle: Exclusion 3)”, for which the “apparent KD of MS2 coat protein” value reads like this: (input ligand: FMN 200 uM) 0.137 µM; (input ligand: none) 1.11 µM.

As to “GCUGGUCGAGGAUAUAUAUGACGUGCUUCGGCACGAAGGUCACAUGAGGAUCACCCAUGUAGAAGGUGACCAGC [E2/9-B1] (Eterna round: R97, puzzle: Exclusion 2)”, the “apparent KD of MS2 coat protein” value was determined as 0.11 µM (input ligand: FMN 200 uM) and 0.042 µM (input ligand: none).

With “GCUGUGAAUCAGGAUAUGCGGAUAAAGAGUGCCGCAGAAGGGAUAACAUGAGGAUCACCCAUGUUCCUGCAUGA [Eternabot (L2) Solution 99] (Eterna round: R97, puzzle: Exclusion 6)”, the “apparent KD of MS2 coat protein” value amounted to 0.0265 µM (input ligand: FMN 200 uM) and 0.0209 µM (input ligand: none).

“GGAAAGUGAGGAUAUGGUAAAGUAAGUAUGUAGUAAGUAAUCCAGAAGGCACAUGAGGAUCACCCAUGUAAAUG [Mat - Exclusion 4 - D100] (puzzle: Exclusion 4)”: the “apparent KD of MS2 coat protein” value under setting [2] is 0.0272 µM.

For the sequence “GGAAGGCGAGGAUAUACAAUAAAGAAAGAGAAAGACGUGAGACAUGAGGAUCACCCAUGUAGAAGGUGCGGAGA [AK-MS2ROC-r4-exclusion2-13] (Eterna round: R97, puzzle: Exclusion 2)”, the “apparent KD of MS2 coat protein” value (input ligand: FMN 200 uM) came to 0.0373 µM and the “apparent KD of MS2 coat protein” value (input ligand: none) was 0.0343 µM.

For the sequence “GGACCAAGUCUAGGAUAUUUCAAUAGUUGUGUGAGAGAAGGAGAAUAACAUGAGGAUCACCCAUGUACCUCAAGUAGGCCGAUU [Eternabot solution 16] (Eterna round: R96, puzzle: Exclusion NG 1)”, the “apparent KD of MS2 coat protein” value turned out to be 0.0592 µM (input ligand: FMN 200 uM), 0.0362 µM under setting [1] and 0.048 µM (input ligand: none).

With “GGACCGAGUGUGAGGAUAUGCUGGUCCUUGGAUCAGCAGAAGGCACAUGAGGAUCACCCAUGUGGAGACGGUCC [Eli bmx4 4.33] (Eterna round: R97, puzzle: Brourd's mod of Exclusion 4)”, the “apparent KD of MS2 coat protein” value (input ligand: FMN 200 uM) came to 1.05 µM and the “apparent KD of MS2 coat protein” value (input ligand: none) was determined as 0.0874 µM.

Turning to “GGACCUCCUGAGGAUAUUGUAUCACCCGACUGAUAAGAAGGCAGAACAUGAGGAUCACCCAUGUGGGUACUCGG [Bingo-Bango-14] (Eterna round: R97, puzzle: Exclusion 6)”, the “apparent KD of MS2 coat protein” value is, setting by setting: (input ligand: FMN 200 uM) 0.0346 µM; (input ligand: none) 0.0384 µM.

For “GGAGAGUGAGGAUAUACAUGAGGAUCACCCAUGUAUAUCAAAUAAAAUAAAUUCUCAUGUAGAAGGCGCUUUUC [Alacar 3rd Attempt] (Eterna round: R97, puzzle: Exclusion 3)”, the “apparent KD of MS2 coat protein” value (input ligand: FMN 200 uM) was 0.0162 µM and the “apparent KD of MS2 coat protein” value (input ligand: none) is 0.0144 µM.

Take “GGAGAUCGAGGAUAUACAUGAGGAUCACCCAUGUCCGUAGACUGGGAUCGCGGCAGUGGUAGAAGGUGGAAAAU [Eternabot (L2) Solution 67] (Eterna round: R97, puzzle: Exclusion 3)”: the “apparent KD of MS2 coat protein” value stood at 0.112 µM (input ligand: FMN 200 uM) and 0.16 µM (input ligand: none).

For the sequence “GGAGCAAGUGUCAGGAUAUCGUGGUCGAUAGAUCACGAGAAGGGACAUGAGGAUCACCCAUGUGCCUCAGCUCC [Mat - Exclusion 4 - Eli Mod - D60] (Eterna round: R97, puzzle: Brourd's mod of Exclusion 4)”, the “apparent KD of MS2 coat protein” value runs as follows: (input ligand: FMN 200 uM) 0.736 µM; (input ligand: none) 0.214 µM.

Regarding “GGAGGACGAGCAGGAUAUUUUCACAUGAGGAUCACCCAUGUGUACUCAGGGUAAUCCUCCGCCGAAAAGAAGGGUUCGGAAUAA [Mat - Exclusion NG 2 - Mod of JL - D81] (Eterna round: R96, puzzle: Exclusion NG 2)”, the “apparent KD of MS2 coat protein” value came out at 0.0398 µM (input ligand: FMN 200 uM), 0.0278 µM under setting [1] and 0.0741 µM (input ligand: none).

Take “GGAGGAGAGUUAGGAUAUACAAGAAGAAUGUGAGUAGAAGGAACGGAACAUGAGGAUCACCCAUGUCCCAUGUGGAGGAGGAGG [Kawasakiqro] (Eterna round: R96, puzzle: Exclusion NG 1)”: the “apparent KD of MS2 coat protein” value reads like this: (input ligand: FMN 200 uM) 0.0462 µM; under setting [1], 0.0253 µM; (input ligand: none) 0.0309 µM.

Regarding “GGAGGUAUUUAGGAUAUGAUGUACGACGCAGGUUCAGAAGGGAGUACAUGAGGAUCACCCAUGUGGCCUCAUCC [Eternabot (L2) Solution 47] (Eterna round: R97, puzzle: Exclusion 6)”, the “apparent KD of MS2 coat protein” value runs as follows: (input ligand: FMN 200 uM) 1.2 µM; (input ligand: none) 2.01 µM.

In the case of “GGAUAGUGAGGAUAUCGAUGUUAGGAGGAGGAGGUAGGAGGCGAGAAGGCACAUGAGGAUCACCCAUGUAUGGU [JR_Exclu4_Sub069] (puzzle: Exclusion 4)”, under setting [2], the “apparent KD of MS2 coat protein” value came out at 0.0282 µM.

As to “GGAUCAUAUGUCAGGAUAUGCUGGACCUUGGUUCAGCAGAAGGGACAUGAGGAUCACCCAUGUCAUGGAGAUCC [Mat - Exclusion 4 - Eli Mod - D53] (Eterna round: R97, puzzle: Brourd's mod of Exclusion 4)”, the “apparent KD of MS2 coat protein” value is 0.27 µM (input ligand: FMN 200 uM) and 0.415 µM (input ligand: none).

Turning to “GGAUCGAAUGUGAGGAUAUGCUGGUCCUUGGAUCAGCAGAAGGCACAUGAGGAUCACCCAUGUGAUCAAGAUCC [Eli bmx4 4.77] (Eterna round: R97, puzzle: Brourd's mod of Exclusion 4)”, the “apparent KD of MS2 coat protein” value reads like this: (input ligand: FMN 200 uM) 0.0583 µM; (input ligand: none) 0.91 µM.

(Values after the supplement of paper PMC9170038.)
